First the molecules themselves.
B1: HIV-1 Vif, wild type [HIV-1] / Flag-CBFβ (core-binding factor β), wild type [not stated] (parent complex)
chain 1: not shown
chain 2: MPRVVPDQRSKFENEEFFRKLSRECEIKYTGFRDRPHEERQARFQNACRDGRSEIAFVATGTNLSLQFFPASWQGEQRQTPSREYVDLEREAGKVYLKAPMILNGVCVIWKGWIDLQRLDGMGCLEFDEERAQQEDALAQQAFEEARRRTREFEDRDRSHREEMEVRVSQ

This assay covers variants of B1. Kind of assay: co-immunoprecipitation (Flag IP) with immunoblot quantification; 293T cells treated with CBFβ-specific siRNA; MG132 (5 μM) for 16-h; read off a plot. For orientation: A western blot detects proteins with antibodies after separation by electrophoresis.
Turning to chain 2 I55A, the percent of parent is approximately 68 % WT CBFβ.
In the case of chain 2 F68A, the percent of parent is approximately 76 % WT CBFβ.

These data come from publication PMC5356271 (2017).
